Measured values published in patent publication US20180274003.

Assays:
[1] = target: T1, Peptide 2 YKN-glc-V (depsipeptide 2)
T1 chain: YKNXV

Peptide 4 YKNGV = target: T2, Peptide 4 YKNGV
T2 chain: YKNGV

Peptide 3 YKNHV = target: T3, Peptide 3 YKNHV
T3 chain: YKNHV

[2] = target: T4, Peptide 1 YKN-thioglc-V (thiodepsipeptide 1)
T4 chain: YKNXV

B1: butelase 1 (protein)
chain: VEGTRWAVLVAGSKGYVNYRHQADVCHAYQILKKGGLKDENIIVFMYDDIAYNESNPHPGVIINHPYGSDVYKGVPKDYVGEDINPPNFYAVLLANKSALTGTGSGKVLDSGPNDHVFIYYTDHGGAGVLGMPSKPYIAASDLNDVLKKKHASGTYKSIVFYVESCESGSMFDGLLPEDHNIYVMGASDTGESSWVTYCPLQHPSPPPEYDVCVGDLFSVAWLEDCDVHNLQTETFQQQYEVVKNKTIVALIEDGTHVVQYGDVGLSKQTLFVYMGTDPANDNNTFTDKNSLGTPRKAVSQRDADLIHYWEKYRRAPEGSSRKAEAKKQLREVMAHRMHIDN
Km [1]: 740 µM | kcat [1]: 12.4 s⁻¹ | kcat/Km [1]: 16800 M⁻¹ s⁻¹ | Km (Peptide 4 YKNGV): 880 µM | kcat (Peptide 4 YKNGV): 7.9 s⁻¹ | kcat/Km (Peptide 4 YKNGV): 8900 M⁻¹ s⁻¹ | Km (Peptide 3 YKNHV): 300 µM | kcat (Peptide 3 YKNHV): 4.1 s⁻¹ | kcat/Km (Peptide 3 YKNHV): 13500 M⁻¹ s⁻¹ | Km [2]: 2760 µM | kcat [2]: 56.5 s⁻¹ | kcat/Km [2]: 20500 M⁻¹ s⁻¹
